# Article PMC3456991 (Journal of molecular biology, 2012)
# Read-outs that look alike come from different tables or passages of the source.
# Experiments:
# SEC [1] = biological target: the molecule itself; assay: SEC
# SEC [2] = biological target: the molecule itself; assay: SEC; remark: listed apart in the source
# SEC-MALS = biological target: the molecule itself; assay: SEC-MALS
# SEC [3] = biological target: the molecule itself; assay: SEC; remark: listed apart in the source
# [4] = biological target: the molecule itself; assay: NMR chemical shift comparison of monomer and dimer
protein,measurement,setting,value
"Fis1ΔTM-C79S/C87S (domain or fragment, Saccharomyces cerevisiae) MMTKVDFWPTLKDAYEPLYPQQLEILRQQVVSEGGPTATIQSRFNYAWGLIKSTDVNDERLGVKILTDIYKEAESRRRESLYYLTIGSYKLGEYSMAKRYVDTLFEHERNNKQVGALKSMVEDKIQKE",binding result,SEC [1],binds
"Fis1ΔTM-A72P (domain or fragment, Saccharomyces cerevisiae) MMTKVDFWPTLKDAYEPLYPQQLEILRQQVVSEGGPTATIQSRFNYAWGLIKSTDVNDERLGVKILTDIYKEPESRRRECLYYLTIGCYKLGEYSMAKRYVDTLFEHERNNKQVGALKSMVEDKIQKE",Kd,SEC [2],≥ 3000 µM
"Fis1ΔTM (1-127), wild type cytoplasmic domain of yeast Fis1 (domain or fragment, Saccharomyces cerevisiae) MMTKVDFWPTLKDAYEPLYPQQLEILRQQVVSEGGPTATIQSRFNYAWGLIKSTDVNDERLGVKILTDIYKEAESRRRECLYYLTIGCYKLGEYSMAKRYVDTLFEHERNNKQVGALKSMVEDKIQKE",stoichiometry N,SEC-MALS,2
same,Kd,SEC [2],15 ± 3 µM
same,Kd,SEC [3],0.24 ± 0.08 µM
"Fis1ΔTM-3 (E78D/I85T/Y88H) (domain or fragment, Saccharomyces cerevisiae) MMTKVDFWPTLKDAYEPLYPQQLEILRQQVVSEGGPTATIQSRFNYAWGLIKSTDVNDERLGVKILTDIYKEAESRRRDCLYYLTTGCHKLGEYSMAKRYVDTLFEHERNNKQVGALKSMVEDKIQKE",binding result,SEC [1],binds
"Fis1ΔTM (1-126) without a linker or affinity tag, for NMR (domain or fragment, Saccharomyces cerevisiae, UniProt P40515 1-126, looked up) MTKVDFWPTLKDAYEPLYPQQLEILRQQVVSEGGPTATIQSRFNYAWGLIKSTDVNDERLGVKILTDIYKEAESRRRECLYYLTIGCYKLGEYSMAKRYVDTLFEHERNNKQVGALKSMVEDKIQK",binding result,[4],binds
